± gives the standard deviation.

This series can be described thus: protein stability index of a GFP-peptide fusion (GPS, HEK-293T) (PSI 1-6); higher = more stable.
[1] abbreviates: treatment: DMSO, c terminus: a fixed tail appended.
[2] abbreviates: treatment: MLN4924 1 uM, 8 h, c terminus: a fixed tail appended.
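Further: 24-mer peptide tiles fused after GFP, lentivirally expressed, FACS-sorted into six equal bins by GFP/DsRed ratio, decoded by Illumina sequencing, PSI is the read-weighted mean bin number.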

For AAAATVLLRTARVRRECWFLPTAL [SLC19A2], the protein stability index by setting is: under setting [1], 2.51 ± 0.54; under setting [2], 2.28 ± 0.42. As to AAASGAAGGGGGGAGAGAPGGGRL [INTS3], the protein stability index was found to be 4.98 ± 0.2 under setting [1] and 4.91 ± 0.26 under setting [2].

AAIVVNGHGMTPLKVAAESCKADV [FEM1B] gave a protein stability index under setting [1] of 3.38 ± 0.39 and a protein stability index under setting [2] of 3.3 ± 0.35. AAQEGHLELVKYLLAAGANVHATT [ANKRD17]: the protein stability index is 2.34 ± 0.3 under setting [1] and 2.74 ± 0.35 under setting [2]. The matching figures for ADESVLWQLFGPFGAVTNVKVIRD [ELAVL3]: 2.23 ± 0.18 and 2.35 ± 0.33. In the case of ADGQESTPPTPAPTSGIVGALMEV [WASL], the protein stability index turned out to be 4.86 ± 0.1 under setting [1] and 4.56 ± 0.17 under setting [2].

ADLLEEEVIISWSEKASKKYVSKE [EIF5] came in with a protein stability index under setting [1] of 3.98 ± 0.31 and a protein stability index under setting [2] of 4.16 ± 0.41. With ADSLDFDETFLATSFLQHPWDESG [FOXJ1], the protein stability index is 4.22 ± 0.087 under setting [1] and 4.08 ± 0.13 under setting [2]. Regarding ADSMLMQGSRGLTDQAIFYAVTPL [HDAC6], the protein stability index under setting [1] was found to be 2.54 ± 0.39 and the protein stability index under setting [2] stood at 2.46 ± 0.44. AEDTEKKDEPSKYNQQQALIDQRY [CEP70] yielded a protein stability index under setting [1] of 5.2 ± 0.31 and a protein stability index under setting [2] of 5.36 ± 0.059.

In the case of AEEKEQLLHNDEYQETMVESTFMY [USP39], the protein stability index stood at 4.69 ± 0.27 under setting [1] and 4.8 ± 0.2 under setting [2]. Consider AEGTTGLAPAGQTSEESRPRLSQL [TNXB], for which the protein stability index is 5.66 ± 0.21 under setting [1] and 5.36 ± 0.25 under setting [2].

As to AELQAELLHSQARLAELEAQVRKL [FBF1], the protein stability index is, setting by setting: under setting [1], 4.29 ± 0.21; under setting [2], 4.26 ± 0.092. For AFRALASAQCPQFGIPRKRLKQS [SPOPL], the protein stability index (treatment: DMSO, c terminus: native) worked out at 2.74 ± 0.19 and the protein stability index (treatment: MLN4924 1 uM, 8 h, c terminus: native) is 2.83 ± 0.16.

Regarding AGEDNDELIDNLKEAQYIRTELVE [PCMTD2], the protein stability index under setting [1] was 5.13 ± 0.18 and the protein stability index under setting [2] was 5.02 ± 0.17. Regarding AGGSSGTTARERPCVRPGVSGSPV [FBF1], the protein stability index amounted to 4.58 ± 0.16 under setting [1] and 4.47 ± 0.32 under setting [2].

AGGSSSTPTPQALYPDLSCPEGLE [SPSB2]: the protein stability index is, setting by setting: under setting [1], 5.15 ± 0.31; under setting [2], 5.21 ± 0.25. The corresponding values for AGNDPYCFVEFHEHRHAAAALAAM [TIA1] are 2.66 ± 0.17 and 2.7 ± 0.25. The corresponding values for AGNSSRNSSQSSSDGSCKTAGEMV [BTBD10] are 5.16 ± 0.35 and 5.14 ± 0.22. Consider AGQKRKHSEGRVEVYYDGQWGTVC [LOXL2], for which the protein stability index is 2.87 ± 1.3 under setting [1] and 3.35 ± 1 under setting [2]. In turn, AGQRGEPGPKGDPGEKSHWGEGLH [EMID1] registered a protein stability index under setting [1] of 4.34 ± 0.36.

Consider AKAQVRKAVQYEEKNPCRTLCCFC [STX11], for which the protein stability index is, setting by setting: under setting [1], 2.97 ± 0.24; under setting [2], 3.36 ± 0.54.

As to AKKLPPVQESQSERLQAAGTDSAG [ELOA2], the protein stability index under setting [1] turned out to be 5.2 ± 0.18 and the protein stability index under setting [2] was found to be 5.09 ± 0.24. As for AKLAINQGMEVDLVTGLAIEEACY [AUH], the protein stability index under setting [1] was found to be 2.07 ± 0.21 and the protein stability index under setting [2] turned out to be 2.32 ± 0.44. The matching figures for AKNYIWALSEILRIGKRPDLLTFV [NEUROD6]: 2.53 ± 0.52 and 2.69 ± 0.92.

As for AKQKLDFFIRTSDSFDKFDFCEPS [PCMTD2], the protein stability index was 2.87 ± 0.26 under setting [1] and 3.02 ± 0.47 under setting [2]. Turning to AKVPRPPSTLLPTPEEQGELEPLK [FOXJ1], the protein stability index runs as follows: under setting [1], 5.19 ± 0.23; under setting [2], 5.3 ± 0.18.

For AKYPHDVVNHLSCDEARNHYGGVV [SPACA9], the protein stability index is, setting by setting: under setting [1], 3.5 ± 0.27; under setting [2], 3.58 ± 0.082.

On to ALAREFSCPFFETSAAYRYYIDDV [RIT1], for which the protein stability index reads like this: under setting [1], 2.29 ± 0.13; under setting [2], 2.08 ± 0.12.

On to ALGILIFEMLSGFPPFFDDNPFGI [PRKX], for which the protein stability index was found to be 3.11 ± 1.7 under setting [1] and 3.31 ± 0.25 under setting [2]. On to ALGTSWTLPLQDRELGPEELDELQ [CABP4], for which the protein stability index by setting is: under setting [1], 5.4 ± 0.097; under setting [2], 5.23 ± 0.16. Consider ALKEELLFMKKNHEEEVKGLQAQI [KRT18], for which the protein stability index under setting [1] came out at 3.79 ± 0.36 and the protein stability index under setting [2] stood at 3.95 ± 0.28. As for ALMHTLQRHRDILQVIYWARDVFI [GOSR1], the protein stability index under setting [1] worked out at 2.84 ± 0.5 and the protein stability index under setting [2] came to 2.26 ± 0.47.

For the sequence ALPEAPAPLLPHITATSLLGTRES [BCL2L13], the protein stability index is 4.67 ± 0.23 under setting [1] and 4.56 ± 0.16 under setting [2]. With ALRLEVRAGPDSAGIALYSHEDVC [CARM1], the protein stability index stood at 2.61 ± 0.64 under setting [1] and 2.55 ± 0.56 under setting [2].

As to ALSPAGVCGGAQRPGHLPGLLLGS [CDC25B], the protein stability index is, setting by setting: under setting [1], 2.51 ± 0.22; under setting [2], 2.93 ± 0.46. As for ANWQPKVAPATWSAGVPPSAPLQG [SNAP91], the protein stability index stood at 4 ± 0.098 under setting [1] and 3.85 ± 0.25 under setting [2]. The matching figures for APAMYDDESAIDFSAYIDSMAAVP [CEBPD]: 4.32 ± 0.27 and 3.62 ± 0.15. In turn, APAPSQVKSKAKKTVDKHSDEYKI [CEBPB] had a protein stability index under setting [1] of 5.36 ± 0.17 and a protein stability index under setting [2] of 5.37 ± 0.25. The sequence APIRVRNLTIRAGALTGKENNMLQ [DMRTC1] displayed a protein stability index under setting [1] of 3.46 ± 0.23 and a protein stability index under setting [2] of 3.26 ± 0.19. Sequence APLQADLTEQVWKVQDALQNQSDS [SCARA5] returned a protein stability index under setting [1] of 5.26 ± 0.24 and a protein stability index under setting [2] of 5.24 ± 0.28. The corresponding values for APPPADSAPQQNGQPLRPLVPDAS [PDLIM7] are 5.27 ± 0.12 and 5.37 ± 0.13. In the case of AQEPSAVPRAGPLTVNTEAQQLLR [FOXJ1], the protein stability index under setting [1] stood at 4.62 ± 0.39 and the protein stability index under setting [2] is 4.9 ± 0.17. On to AQKQRLERALDATEVPFSITTDNL [TEKT4], for which the protein stability index was 4.72 ± 0.29 under setting [1] and 4.77 ± 0.22 under setting [2]. On to AQLSELRCEMEAQNQEYKMLLDIK [KRT15], for which the protein stability index is, setting by setting: under setting [1], 3.65 ± 0.33; under setting [2], 3.65 ± 0.38.

On to AQQIRLHHFNSSHLEIDDMYTPAY [MYORG], for which the protein stability index is 2.86 ± 0.26 under setting [1] and 2.91 ± 0.21 under setting [2]. For AQSPGAVEEILDRENKRMADSLAS [BET1L], the protein stability index turned out to be 5.12 ± 0.14 under setting [1] and 5.35 ± 0.26 under setting [2]. In the case of AQTELLCCLVKMESLEPDAQVLML [FANCE], the protein stability index reads like this: under setting [1], 2.61 ± 0.68; under setting [2], 2.34 ± 0.16.

AREELMESRMRIESLSSQLSNLQK [LMNB1] displayed a protein stability index under setting [1] of 3.95 ± 0.18 and a protein stability index under setting [2] of 4.07 ± 0.19. The sequence ARIYEETLNILLYEAQDGRGPDNA [KCTD10] displayed a protein stability index under setting [1] of 3.23 ± 0.28 and a protein stability index under setting [2] of 3.04 ± 0.6. ARLLGALAARSGAAYGPGARGEDR [TSPAN10] had a protein stability index under setting [1] of 3.89 ± 0.73 and a protein stability index under setting [2] of 3.91 ± 0.18. As for ASSGLTVEVDAPKSQDLAKIMADI [KRT18], the protein stability index was 4.45 ± 0.3 under setting [1] and 4.57 ± 0.057 under setting [2]. The corresponding values for ATLICMAMQASKATKITLSAIYKW [FOXJ1] are 3.15 ± 0.48 and 2.92 ± 0.71. The corresponding values for ATQQARKRNFISSKSKQPAGHRRP [C22orf31] are 4.58 ± 0.27 and 4.71 ± 0.31. Consider ATSVTVPGAGVPSGSGGTVAPATM [ZBTB22], for which the protein stability index by setting is: under setting [1], 4.7 ± 0.38; under setting [2], 4.64 ± 0.43. Regarding ATYRRLLEGEDAHLSSQQASGQSY [KRT16], the protein stability index runs as follows: under setting [1], 4.46 ± 0.22; under setting [2], 4.4 ± 0.29. Regarding AVAQTAHLPADSEVTLEANPTSAP [RSAD1], the protein stability index is, setting by setting: under setting [1], 5.4 ± 0.14; under setting [2], 5.35 ± 0.23. In the case of AVNQEAMNNAQRIEKWVILEKDFS [ACSBG2], the protein stability index under setting [1] was 3.16 ± 0.31 and the protein stability index under setting [2] is 3.47 ± 0.46.

AWNPEDRSLNVFVKDDDRLTFHRH [SPSB4]: the protein stability index is, setting by setting: under setting [1], 3.65 ± 0.27; under setting [2], 3.76 ± 0.19. Consider AYVSPEILNTTGTYSGKAADVWSL [TRIB1], for which the protein stability index under setting [1] was 2.51 ± 0.3 and the protein stability index under setting [2] was determined as 2.37 ± 0.52.

For the sequence AYYRGAVGALLVYDIAKHLTYENV [RAB11A], the protein stability index under setting [1] stood at 3.11 ± 0.5 and the protein stability index under setting [2] came to 2.89 ± 0.59. With CALNALTTTVCLVAAALRYLQIFA [FAM189A2], the protein stability index is, setting by setting: under setting [1], 2.75 ± 0.37; under setting [2], 3.1 ± 0.23. The matching figures for CANFGDQGITMGCWDMYRHDIDCQ [LOXL2]: 2.42 ± 0.29 and 2.6 ± 0.57.

With CCIDWTHVTDPLIGCKKPVSASGK [SMG5], the protein stability index came to 3.05 ± 0.21 under setting [1] and 3.09 ± 0.18 under setting [2].

For the sequence CCIVTSTYGWTANMERIMKAQALR [HSP90AB1], the protein stability index under setting [2] is 2.42 ± 0.4. Take CEEWSFFHAYYYCFITLTTIGFGD [KCNK9]: the protein stability index under setting [1] came out at 3.33 ± 0.098 and the protein stability index under setting [2] amounted to 2.96 ± 0.37. CEFSSERGPRMCRFIRERDRAVND [CDC25B] returned a protein stability index under setting [1] of 3.51 ± 0.22 and a protein stability index under setting [2] of 3.52 ± 0.17. Turning to CEKRCSYCNFNKYIPRRLEEAAMQ [RSAD1], the protein stability index reads like this: under setting [1], 2.4 ± 0.028; under setting [2], 2.6 ± 0.31. With CFALIPKAPKKDVIKMLVNDNKVL [EFHC1], the protein stability index is, setting by setting: under setting [1], 2.28 ± 0.44; under setting [2], 2.43 ± 0.53. The corresponding values for CFRSLAASSPSIRQKKLMHKLQEE [CCDC70] are 3.22 ± 0.15 and 3.33 ± 0.046. As to CHCLKGFTLNPDKKTCRRINYCAL [MATN2], the protein stability index reads like this: under setting [1], 2.5 ± 0.24; under setting [2], 2.14 ± 0.18.

As for CHELLGHVPLLAEPSFAQFSQEIG [TPH1], the protein stability index reads like this: under setting [1], 3.1 ± 0.27; under setting [2], 3.02 ± 0.26.

In the case of CHPDDQFTTSILRHWCMKHDELLA [INTS3], the protein stability index by setting is: under setting [1], 3.03 ± 0.28; under setting [2], 3.06 ± 0.41.

The values are drawn from the supplement of paper PMC10567573.
